# Source: patent US5876691A, “Antibody against carcionembryonic antigen (CEA)” (Cancer Research Campaign Technology Limited, priority 1993, dated 1999)
# T1: CEA (Homo sapiens, UniProt P06731)
# T1 sequence (P06731 35-702): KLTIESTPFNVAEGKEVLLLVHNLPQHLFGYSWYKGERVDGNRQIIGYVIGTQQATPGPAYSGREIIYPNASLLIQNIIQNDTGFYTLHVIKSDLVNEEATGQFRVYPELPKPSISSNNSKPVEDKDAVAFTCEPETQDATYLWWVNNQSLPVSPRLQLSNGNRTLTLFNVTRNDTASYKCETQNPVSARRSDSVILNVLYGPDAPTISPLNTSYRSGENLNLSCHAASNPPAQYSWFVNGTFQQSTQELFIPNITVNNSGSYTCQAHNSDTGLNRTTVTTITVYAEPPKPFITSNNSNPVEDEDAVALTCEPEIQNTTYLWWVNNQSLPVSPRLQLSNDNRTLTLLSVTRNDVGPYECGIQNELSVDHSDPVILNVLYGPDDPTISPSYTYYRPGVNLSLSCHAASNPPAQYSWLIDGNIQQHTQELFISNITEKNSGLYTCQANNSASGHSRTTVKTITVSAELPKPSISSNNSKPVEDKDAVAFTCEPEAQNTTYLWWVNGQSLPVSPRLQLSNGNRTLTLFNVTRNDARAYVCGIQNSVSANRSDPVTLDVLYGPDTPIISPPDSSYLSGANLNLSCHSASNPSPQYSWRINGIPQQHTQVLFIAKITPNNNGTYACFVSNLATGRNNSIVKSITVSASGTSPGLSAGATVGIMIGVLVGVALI
# B1: MFE-23: anti-CEA single chain Fv selected from a bacteriophage library, sequence of FIG. 3 (SEQ ID No. 2) (protein)
# scFv: ETVIMKYLLPTAAAGLLLLAAQPAMAQVKLQQSGAELVRSGTSVKLSCTASGFNIKDSYMHWLRQGPEQGLEWIGWIDPENGDTEYAPKFQGKATFTTDTSSNTAYLQLSSLTSEDTAVYYCNEGTPTGPYYFDYWGQGTTVTVSSGGGGSGGGGSGGGGSENVLTQSPAIMSASPGEKVTITCSASSSVSYMHWFQQKPGTSPKLWIYSTSNLASGVPARFSGSGSGTSYSLTISRMEAEDAATYYCQQRSSYPLTFGAGTKLELKRAA
# Key:
# [1] = biological target: carcinoembryonic antigen (CEA) (human) (UniProt P06731); assay: radiolabelled scFv applied to a CEA coupled Sepharose 4B column, gamma counting
# [2] = biological target: carcinoembryonic antigen (CEA) (human) (UniProt P06731); assay: 125I-labelled scFv applied to a 1 ml CEA/Sepharose column (1 mg CEA)
# [3] = biological target: carcinoembryonic antigen (CEA) (human) (UniProt P06731); assay: fluorescence quench, purified soluble scFv
# [4] = biological target: carcinoembryonic antigen (CEA) (human) (UniProt P06731); assay: summary of the affinity comparison with A5B7
# [5] = biological target: carcinoembryonic antigen (CEA) (human) (UniProt P06731); assay: 99mTc-labelled MFE-cys applied to a 1 ml CEA/Sepharose column (1 mg CEA), bound material eluted with 3M ammoniumthiocyanate
# [6] = biological target: carcinoembryonic antigen (CEA) (human) (UniProt P06731); assay: CEA affinity column, after 6 months storage at 4 C, compared with MFE-23 His purified on the same column
# [7] = biological target: carcinoembryonic antigen (CEA) (human) (UniProt P06731); assay: CEA column, after radiolabelling with 125I
# [8] = biological target: carcinoembryonic antigen (CEA) (human) (UniProt P06731); assay: 125I-labelled scFv applied to a CEA coupled Sepharose 4B column, gamma counting; total recovered 1710 cpm
# [9] = biological target: carcinoembryonic antigen (CEA) (human) (UniProt P06731); assay: MFE-23 His purified by CEA antigen affinity chromatography, 1 mg applied to the CEA affinity column
# [10] = biological target: carcinoembryonic antigen (CEA) (human) (UniProt P06731); assay: IMAC purified MFE-23 His, 2 mg applied to the CEA affinity column after 6 months storage at 4 C
# [11] = biological target: carcinoembryonic antigen (CEA) (human) (UniProt P06731); assay: known amount of antibody applied to the CEA affinity column after 6 months storage at 4 C
# [12] = biological target: carcinoembryonic antigen (CEA) (human) (UniProt P06731); assay: unbound fraction of 125I-MFE-23 His reapplied to the CEA column
# [13] = biological target: carcinoembryonic antigen (CEA) (human) (UniProt P06731); assay: IMAC purified MFE-23 His, 0.5 mg applied to the CEA affinity column after 6 months storage at 4 C
# [14] = biological target: carcinoembryonic antigen (CEA) (human) (UniProt P06731); assay: IMAC purified MFE-23 His, 1 mg applied to the CEA affinity column after 6 months storage at 4 C
# [15] = biological target: carcinoembryonic antigen (CEA) (human) (UniProt P06731); assay: 125I-labelled scFv applied to a CEA coupled Sepharose 4B column, gamma counting
# [16] = biological target: carcinoembryonic antigen (CEA) (human) (UniProt P06731); assay: fluorescence quench
# [17] = biological target: carcinoembryonic antigen (CEA) (human) (UniProt P06731); assay: radiolabelled control scFv applied to a CEA coupled Sepharose 4B column, gamma counting
# [18] = tested on: human colorectal adenocarcinomas; assay: Immunohistochemistry with purified scFv on colorectal adenocarcinomas; type: binding; conditions: second antibody against myc tag, positive/tested tumours
# From the text: (§1) MFE-23 was subcloned for expression as a soluble scFv linked to a C-terminal myc tag to aid identification during protein purification. […] The specificity against a range of normal human tissues was examined and the only reactivity was weak and with normal large bowel--this is in contrast to many anti-CEA monoclonal antibodies which commonly show cross reaction with a variety of normal tissues^7.
# normal human tissues = assay: Immunohistochemistry specificity against normal human tissues; type: binding
# From the text: as §1
# CEA [19] = biological target: T1, CEA; assay: CEA binding of radiolabelled product on CEA/Sepharose column
# Description: 75 μg of A5-SC and MFE-23 were iodinated with 0.5 mCi of 125-I using the Chloramine T/L-Tyrosine method^20. […] The stability of the radiolabelled products was tested by gel filtration on S-100.
# MFE-cys was radiolabelled with ^99m Tc using a ^99m Tc-D-glucarate transfer method^22. 1 ml of ^99m Tc sodium pertechnetate (40.5 mCi) was added to 12.5 mg of monopotassium D-glucarate, 16.8 mg of sodium bicarbonate and 100 μg of stannous chloride (stannous chloride was made up directly before use at a concentration of 0.2 mg/ml). This solution was left for 1 min at room temperature. Then 0.5 ml was mixed with 200 μg MFE-cys in PBS/1 mM EDTA. The mixture was incubated at room temperature for 30 min and then applied to a PD 10 column (Pharmacia; primed with 3% human serum albumin in PBS) to separate the radiolabelled protein from the free pertechnetate. The efficiency of ^99m Tc uptake was tested by thin layer chromatography, using acetonitrile/water (30:20) as running solvent. An aliquot (100 μl) of diluted radiolabelled scFv (1:30 in PBS/Tween 20) was applied to a 1 ml CEA-sepharose column, containing 1 mg of CEA, to test CEA-binding. The column was washed with 8 volumes of PBS/0.05% Tween 20 and bound material was obtained by adding 3M ammoniumthiocyanate. Further, the stability of the labelled scFv was tested by applying the product (diluted 1:30) to Sephacryl S-100. To test the stability of the radiolabelled product in vivo serum taken from mice injected with the labelled scFv 24 h after administration was also applied to Sephacryl S-100. Stability of the ^99m Tc-labelled product was also tested by gel autoradiography as follows: radiolabelled MFE-cys was subjected to SDS-PAGE using a 15% non-reducing acrylamide gel. The protein was then Western blotted onto Immobilon P (Millipore), and visualised by autoradiography using Kodak X-Omatic cassette and Hyperfilm-MP film (Amersham).
# Thin layer chromatography (TLC) was performed to measure % ^125 I incorporation. Antigen binding was also assessed by applying a dilution of the radiolabel to a CEA coupled Sepharose 4B (1 mg CEA; 1 ml column volume). The unbound fraction was washed through with 2 column volumes of PBS and the bound fraction with the same volume of 3M ammonium thiocyanate. A control scFv B1.8 which is not specific for CEA and MFE-23 containing a c-myc tag (MFE-23 myc) were tested as a comparison. The unbound and bound fractions were analysed for ^125 I activity using a gamma counter. Stability assessments were carried out by applying a sample of the radiolabel and unlabelled product to a 15% SDS PAGE minigel. The ^125 I-MFE-23 His was visualised by autoradiography and the unlabelled product by Coomassie blue staining. ^125 I-MFE-23 His was also applied to a 100 ml Sephacryl S-100 column (115×1 cm). 1.5 ml fractions were collected and counted for ^125 I activity.
# [20] = tested on: LS174T human colorectal carcinoma xenograft; assay: Xenograft biodistribution study, Example 2; type: in vivo, nude mice; conditions: for percent injected activity per gram of tissue, tumour: 125-I labelled, i.v. tail vein
# Description: Radiolabelled antibody was administered via the tail vein of nude mice bearing the LS174T human colorectal carcinoma xenograft^21. Each mouse received 4.3 μg/30.12 μCi of A5-SC or 4.3 μg/7.73 μCi of MFE-23. Mice were sacrificed at 24 h and 48 h, and tissues were removed and assessed for activity using a gamma counter. 4 mice were used for each time point.
# [21] = tested on: LS174T human colorectal tumour xenografts; assay: Tumour localisation in vivo, Example 1; set-up: species or system nude mice; conditions: 125 Iodine labelled, FIG. 2, 29 and 35 hours after injection
# From the text: Tumour localisation in vivo was studied using LS174T human colorectal tumour xenografts in nude mice.
# [22] = Isoelectric focusing (pI of scFvs); type: physicochemical; conditions: Amphaline PAG plate pH 3.5-9.5
# From the text: The isoelectric focusing points of the scFvs were obtained using an Amphaline PAG plate pH 3.5-9.5 (Pharmacia) in accordance with manufacturers instructions.
# [23] = Stability of radiolabelled product by gel filtration on S-100 / SDS PAGE; type: physicochemical; conditions: 125-I labelled, gel filtration on S-100
# CEA [24] = biological target: T1, CEA; assay: Dissociation constant (Kd) by fluorescence quench; conditions: binding to CEA
# From the text: as §1
molecule,measurement,setting,value
MFE-23 soluble scFv linked to a C-terminal myc tag,counts bound to the column,[1],23000 cpm
same,percent of recovered counts bound to the column,[1],56%
same,percent of counts recovered,[2],38.7%
same,Kd,[3],2.5 nM
same,fold affinity against A5B7,[4],10 times
MFE-cys (cysteine-tagged MFE-23 scFv),percent of counts recovered in the bound fraction,[5],55%
MFE-23 His (MFE-23 scFv containing 6xHis at the C-terminus),antigen binding retained,[6],84%
same,antigen binding retained,[7],> 75%
same,counts in the bound fraction,[8],1280 cpm
same,Bound,[9],0.83 mg
same,Specific activity (%),[9],89%
same,Bound,[10],0.76 mg
same,Specific activity (%),[10],69%
same,mean % bound specific activity,[11],75%
same,percent of loaded counts in the bound fraction on reapplication,[12],58%
same,Bound,[13],0.4 mg
same,Specific activity (%),[13],81%
same,Bound,[14],0.68 mg
same,Specific activity (%),[14],75%
same,percent of recovered counts in the bound fraction,[15],75%
A5B7 monoclonal anti-CEA antibody,Kd,[16],25 nM
A5-SC (scFv derived from monoclonal antibody A5B7),percent of counts recovered,[2],30.8%
control scFv B1.8,counts bound to the column,[17],1300 cpm
same,percent of recovered counts bound to the column,[17],10%
B1,typical CEA-reactive pattern in human colorectal adenocarcinomas,[18],10/10
same,binding to normal tissues,"normal human tissues; liver, kidney, large intestine, tonsil, lung, brain, testis, ovary, cervix, breast, blood films, placenta, spleen, thyroid, oesophagus, stomach, pancreas, lymph node, skeletal muscle",did not bind
same,reactivity with normal large bowel,normal human tissues; only reactivity seen in range of normal human tissues,weak
same,percent of counts recovered on binding to CEA/Sepharose,"CEA [19]; 125-I radiolabelled products, Example 2",38.7%
same,"counts in bound fraction of CEA column, % of total counts recovered","CEA [19]; 125I radiolabelled, Example 5",56%
same,"counts in unbound fraction of CEA column, % of total counts recovered","CEA [19]; 125I radiolabelled, Example 5",43%
same,"percent injected activity per gram of tissue, tumour",[20]; 24 hours,3.2%
same,"percent injected activity per gram of tissue, tumour",[20]; 48 hours,1.2%
same,localisation in liver and spleen,[20]; in contrast with A5-SC,did not show localisation
same,tumour imaging (gamma camera),[21],only tumours are visible
same,pI,[22],4.5-5.5
same,"stability after iodination, S-100 elution profile",[23],one peak
same,Kd,CEA [24],2.5 ± 1.3 nM
